Laboratory results taken from patent US20010046966, “Inhibition of adipogenesis” (published 2001).

B1: specific GATA competitor (dsDNA)
DNA 1: GATCTCCGGCAACTGATAAGGATTCCCTG
DNA 2: CAGGGAATCCTTATCAGTTGCCGGAGATC
B2: non-specific competitor (dsDNA)
DNA 1: GATCGAACTGACCGCCCGCGGCCCGT
DNA 2: ACGGGCCGCGGGCGGTCAGTTCGATC

Legend:
GATA-3 [1] = molecular target: T1, GATA-3 (UniProt P23772 P23772:1-443); experiment: competition; 1 ug competitor competed complex; details: tags: GST fusion
Description: (§1) FIG. 5B is a photograph of an electrophoretic gel showing the results of an mobility shift assay. Based on the result of Dnase I footprinting, two double stranded DNA fragment (nucleotide −199 to −85 and nucleotide −22 to +9, respectively) were end-labeled with 32P and electrophoretic mobility shift assays were performed with GST-GATA-2 or GST-GATA-3. For each protein-DNA reaction, specific (S) or non-specific (N) DNA competitors were also included in the experiments.
(§2) After confirming the requirement for GATA DNA-binding activity, experiments were carried out to determine whether this activity requires direct interaction with the PPAR-gamma 2 promoter. The proximal PPAR-gamma 2 promoter region was evaluated by deletion analysis. […] To determine if and at what sites GATA factors directly interact with DNA on this fragment, DNase I footprinting experiments were carried out (FIG. 5A) combined with elecrophoretic mobility shift assays (FIG. 5B) using recombinant GATA-2 and GATA-3 fusion proteins. The electrophoretic mobility shift assays were performed in 20 ul reaction volume. 2 ul GST-GATA fusion protein was incubated with 0.5 ug poly[d(I-C)] and ³²p labeled DNA probe (4×10⁴ cpm) in the presence or absence of 1 ug of specific or non-specific competitors, at room temperature for 20 min. […]

GATA-2 [2] = molecular target: T2, GATA-2 (UniProt O09100 O09100:1-480); experiment: competition; 1 ug competitor competed complex; details: tags: GST fusion (pGEX-2T)
Description: as §1, §2

GATA-3 [3] = molecular target: T1, GATA-3; experiment: competition; 1 ug, no competition; details: tags: GST fusion
Description: as §1, §2

GATA-2 [4] = molecular target: T2, GATA-2; experiment: competition; 1 ug, no competition; details: tags: GST fusion (pGEX-2T)
Description: as §1, §2

T2 sequence (O09100 whole entry, the tested form may be a part, one chain of several): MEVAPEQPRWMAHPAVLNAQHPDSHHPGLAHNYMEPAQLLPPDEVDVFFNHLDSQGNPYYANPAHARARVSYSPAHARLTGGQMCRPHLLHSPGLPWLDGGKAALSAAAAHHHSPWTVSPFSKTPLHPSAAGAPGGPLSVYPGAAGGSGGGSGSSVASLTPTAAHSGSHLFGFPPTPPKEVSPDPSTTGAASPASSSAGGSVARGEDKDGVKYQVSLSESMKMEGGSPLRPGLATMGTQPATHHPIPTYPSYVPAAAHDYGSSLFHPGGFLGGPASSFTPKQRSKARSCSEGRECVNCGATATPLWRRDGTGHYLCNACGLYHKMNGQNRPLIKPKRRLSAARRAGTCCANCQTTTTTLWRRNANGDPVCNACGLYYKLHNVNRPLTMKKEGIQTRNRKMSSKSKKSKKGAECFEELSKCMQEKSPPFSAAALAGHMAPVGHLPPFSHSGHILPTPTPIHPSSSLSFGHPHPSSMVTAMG
T1 sequence (P23772 whole entry, the tested form may be a part, one chain of several): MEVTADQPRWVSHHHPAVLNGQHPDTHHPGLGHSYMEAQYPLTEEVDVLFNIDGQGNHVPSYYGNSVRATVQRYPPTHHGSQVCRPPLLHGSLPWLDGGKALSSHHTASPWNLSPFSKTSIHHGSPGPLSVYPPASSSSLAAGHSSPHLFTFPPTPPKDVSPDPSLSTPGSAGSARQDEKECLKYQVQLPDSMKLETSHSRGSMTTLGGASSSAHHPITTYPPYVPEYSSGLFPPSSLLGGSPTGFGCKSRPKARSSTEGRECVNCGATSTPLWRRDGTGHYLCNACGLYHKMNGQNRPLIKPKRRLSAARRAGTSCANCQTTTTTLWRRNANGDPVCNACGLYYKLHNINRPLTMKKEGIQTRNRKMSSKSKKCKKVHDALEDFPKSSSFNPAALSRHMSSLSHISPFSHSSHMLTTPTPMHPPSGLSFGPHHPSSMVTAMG

Row | Binder | binding result (GATA-3 [1]) | binding result (GATA-2 [2]) | binding result (GATA-3 [3]) | binding result (GATA-2 [4])
1 | B1 | binds | binds |  | 
2 | B2 |  |  | no binding | no binding
